Assay results published in patent US6861508B2, “Transcriptional intermediary factor-2” (Institut National de la Sante et de la Recherche Medicale, priority 1996, dated 2005).
One block for each molecule: values may come before it.

B2: GST-hRARα(DEF) (pGEX2T-hRARα(DEF), amino acids 153-462) (receptor, human, UniProt P10276 153-462, looked up)
chain: MSKESVRNDRNKKKKEVPKPECSESYTLTPEVGELIEKVRKAHQETFPALCQLGKYTTNNSSEQRVSLDIDLWDKFSELSTKCIIKTVEFAKQLPGFTTLTIADQITLLKAACLDILILRICTRYTPEQDTMTFSDGLTLNRTQMHNAGFGPLTDLVFAFANQLLPLEMDDAETGLLSAICLICGDRQDLEQPDRVDMLQEPLLEALKVYVRKRRPSRPHMFPKMLMKITDLRSISAKGAERVITLKMEIPGSMPPLIQEMLENSEGLDTLSGQPGGGGRDGGGLAPPPGSCSPSLSPSSNRSSPATHSP
notes: range 153-462; Bacterially produced; also called GST-RAR; GST-RARα(DEF); not shown: glutathione-S-transferase (GST) of pGEX2T (Pharmacia)
B4: GST-hERα(DEF) (pGEX2T-hERα(DEF), amino acids 282-595) (receptor, human, UniProt P03372 282-595, looked up)
chain: SAGDMRAANLWPSPLMIKRSKKNSLALSLTADQMVSALLDAEPPILYSEYDPTRPFSEASMMGLLTNLADRELVHMINWAKRVPGFVDLTLHDQVHLLECAWLEILMIGLVWRSMEHPGKLLFAPNLLLDRNQGKCVEGMVEIFDMLLATSSRFRMMNLQGEEFVCLKSIILLNSGVYTFLSSTLKSLEEKDHIHRVLDKITDTLIHLMAKAGLTLQQQHQRLAQLLLILSHIRHMSNKGMEHLYSMKCKNVVPLYDLLLEMLDAHRLHAPTSRGGASVEETDQSHLATAGSTSSHSLQKYYITGEAEGFPATV
notes: range 282-595; Bacterially produced; also used 32P-labelled as Far-Western probe; also called GST-ER; GST-ER(DEF); not shown: glutathione-S-transferase (GST) of pGEX2T (Pharmacia)

Tests used:
ER = assay: CAT reporter transactivation by ER with TIF2/TIF2.1 coexpression; format: cell-based; details: HeLa, Cos-1 cells
Protocol: (b) HeLa cells were cotransfected with 5 μg Vit-tk-CAT and the indicated amount of HEGO, with or without 5 μg TIF2.1 in the presence of […] E2 or OHT. CAT activity is given relative to that induced by 100 ng HEGO in presence of E2.
(d) HeLa (lanes 1-12) or Cos-1 lanes 13-18) cells were transfected with 5 fig GRE-TATA-CAT (lanes 1-6) or 1 μg MMTV-CAT (lanes 7-18) together with 1 μg hPR with or without 3 μg TIF 2 in presence or absence of […] of the indicated ligand. • (e) Cos-1 cells were cotransfected with 1 μg Vit-tk-CAT and 1 μg HEGO with or without 3 μg TIF2 in presence or absence of 10^−6 M of the indicated ligands.
TIF2-stimulation is to some extent affected by the promoter environment of the responsive gene, as the TIF2 effect on PR/5020-induced transactivation was greater for a complex (MMTV) than for a minimal (GRE-TATA) promoter, although the latter was also reproducibly stimulated (FIG. 5d).

GAL4 reporter = assay: GAL4 DBD-TIF2 fusion CAT reporter transactivation assay; format: cell-based
Protocol: (a) HeLa cells were cotransfected with 1 μg (17m)5-βG-CAT and 10 μg GAL(1-147) or 1,3 and 10 μg GAL(1-147)-TIF2.1, respectively.
(c) Analysis of the transcriptional activity of GAL-TIF2 fusion proteins. Cos-1 and HeLa cells were transfected with 3 lag of plasmids expressing different regions of TIF2 fised to the DNA-binding domain of the yeast transcription factor GALA together with 1 μg of the (7m)5-G-CAT reporterplasmid. CAT assays were performed as described (Bocquel, M. T. et al., Nucl Acids Res. 17:2581-2595 (1989)). Quantitative data on CAT reporter expression were obtained either by phosphoimager analysis (BAS2000, Fuji) of ^14C-labeled CAT reaction products separated by thin-layer chromatography, or using the CAT ELISA Kit (Boehringer Mannheim). In all cases, CAT activities were normalized to the β-galactosidase concentrations resulting from cotransfection of 1 μg of pCMVPGal (gift from T. Lerouge) as internal control. Fold inductions above the GAL4 DBD value are indicated. The mean and standard deviation of at least three experiments are shown. A representative Western blot, illustrating the expression levels of the GAL4-TIF2 fusion proteins, expressed from 10 μg of the corresponding expression vectors, is shown on the left.
(b) Transcriptional activation of TIF2 AF-1 mutants. Cos-1 and HeLa cells were cotransfected with 3 μg of plasmids expressing different mutants of the TIF2 AF-1 fused to the DNA-binding domain of the yeast transcription factor GAL4 together with 1 μg of the (17m)5-G-CAT reporter plasmid. Fold inductions above the activation seen with the GAL4 DBD alone are indicated. The values represent the mean of at least three experiments.
(a) Transcriptional activation by TIF2.13 and TIF2.13 mutants. Cos-1 and HeLa cells were cotransfected with 3 μg of plasmids expressing the TIF2.13 region and the indicated TIF2.13 mutants fused to the DNA-binding domain of the yeast transcription factor GALA together with 1 μg of the (17m)5-G-CAT reporter plasmid. Fold inductions above the GAL4 DBD 1-fold value are indicated. The mean and standard deviation obtained from at least four experiments are shown. The expression levels of the GAL4-TIF2.13 fusion proteins were confirmed by western blotting (data not shown).
Transient transfections of HeLa and Cos-1 cells were performed as described (Gronemeyer et al., (1987); Bocquel, M. T. et al., Nucl. Acids Res. 17:2581-2595 (1989)).

ER, RARα and RXRα LBDs = assay: GST pull-down of TIF2 polypeptides with NR LBDs; format: binding; details: in vitro, with or without 10^−6 M ligand
Protocol: (b) Mapping of the nuclear receptor-interacting domain of TIF2.
(c-d) Interaction of TIF2 NID mutants with NRs in vitro. […] For quantification of point mutant interactions, see below.
(e-f) Effect of TIF2 NID point mutations on stimulation of NR AF-2 activity. Cos-1 cells were cotransfected with 1 μg of the (17m)5-TATA-CAT reporter, 0.2 μg of GAL-hERα(EF) or GAL-mRXRα(DE), and 2.5 μg of the TIF2.1 wildtype or mutated fragments, as indicated. […] Each bar represents the mean value obtained from at least three (interaction) or at least four (transactivation) experiments, respectively; standard deviations are indicated. Note that the absolute values for TIF2.1 wildtype activity varied by ±16% when cotransfected with GAL-hERα(EF) and by ±34% when cotransfected with GAL-mRXRα(DE). In the in-vitro-interaction assays, the affinity of the TIF2.1 wildtype standard varied by less than ±25%. Expression levels of TIF2 mutants in the cells were verified by Western blot (not shown) with mouse monoclonal antibody 3Ti3F1, which is directed against an epitope outside the mutated area.
To further delineate the TIF2 NR interaction domain (NID), we studied the interaction between a series of TIF2 deletion mutants and the ER or RARα LBDs, using GST-fusion protein-based in vitro assays. In both cases, an NWD was mapped to the central region of TIF2 (amino acids 624-869 in mutant TIF2.5; see FIGS. 7a and b). No additional NWD could be identified in the N- or C-termini of TIF2 (FIGS. 7a and b; mutants TIF2.0, TIF2.2 and TIF2.7). Note that, in contrast, SRC-1, a paralogue of TIF2, apparently harbours two distinct non-contiguous NIDs located in the central and C-terminal regions (Onate, S. A. et al., Science 270:1354-1357 (1995), Yao, T. P. et al., Proc. Natl. Acad. Sci. USA 93:10626-10631 (1996); Zhu, Y. et al., Gene Epression 6:185-195 (1996)).

[1] = biological target: B4; assay: GST pull-down with 35S in-vitro-translated TIF2 polypeptides (FIG. 7a-b)
[2] = biological target: B2; assay: as above
[3] = biological target: T1, TIF2.1 (TIF2 amino acids 624 to 1287) (human, UniProt Q15596 624-1287); assay: Far-Western blot with 32P-labelled NR LBD probe, agonist present
T1 construct: Form without a stated tag: expression-library clone, expressed in Cos cells from pSG5, or in-vitro-translated; also called cytoplasmic TIF2.1 polypeptide
T1 sequence: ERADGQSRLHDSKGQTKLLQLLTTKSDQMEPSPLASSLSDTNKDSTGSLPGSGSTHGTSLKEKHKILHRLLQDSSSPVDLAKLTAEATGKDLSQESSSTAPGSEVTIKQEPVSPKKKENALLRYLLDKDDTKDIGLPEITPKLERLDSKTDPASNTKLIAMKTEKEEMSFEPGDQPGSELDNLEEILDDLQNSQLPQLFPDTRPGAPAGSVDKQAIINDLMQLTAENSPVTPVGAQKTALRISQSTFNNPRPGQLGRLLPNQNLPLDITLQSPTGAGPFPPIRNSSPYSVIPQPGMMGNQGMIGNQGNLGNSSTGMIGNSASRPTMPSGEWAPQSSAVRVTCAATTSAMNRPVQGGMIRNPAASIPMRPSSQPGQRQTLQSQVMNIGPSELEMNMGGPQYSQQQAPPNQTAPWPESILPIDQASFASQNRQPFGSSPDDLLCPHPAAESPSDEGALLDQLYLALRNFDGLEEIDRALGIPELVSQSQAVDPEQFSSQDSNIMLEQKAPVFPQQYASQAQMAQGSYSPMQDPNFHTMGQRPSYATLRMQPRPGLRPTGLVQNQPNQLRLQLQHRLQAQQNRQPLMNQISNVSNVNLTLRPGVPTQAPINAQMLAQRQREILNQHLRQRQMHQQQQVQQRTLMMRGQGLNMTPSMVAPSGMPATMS

[4] = biological target: T2, (His)6-TIF2.1, E. coli-expressed purified recombinant TIF2.1 (human, UniProt Q15596 624-1287); assay: GST interaction assay with E. coli-expressed TIF2.1, Western blot, agonist present
T2 construct: also called His-tagged TIF2.1; purified TIF2.1 protein; not shown: (His)6 tag of pET15b
T2 sequence: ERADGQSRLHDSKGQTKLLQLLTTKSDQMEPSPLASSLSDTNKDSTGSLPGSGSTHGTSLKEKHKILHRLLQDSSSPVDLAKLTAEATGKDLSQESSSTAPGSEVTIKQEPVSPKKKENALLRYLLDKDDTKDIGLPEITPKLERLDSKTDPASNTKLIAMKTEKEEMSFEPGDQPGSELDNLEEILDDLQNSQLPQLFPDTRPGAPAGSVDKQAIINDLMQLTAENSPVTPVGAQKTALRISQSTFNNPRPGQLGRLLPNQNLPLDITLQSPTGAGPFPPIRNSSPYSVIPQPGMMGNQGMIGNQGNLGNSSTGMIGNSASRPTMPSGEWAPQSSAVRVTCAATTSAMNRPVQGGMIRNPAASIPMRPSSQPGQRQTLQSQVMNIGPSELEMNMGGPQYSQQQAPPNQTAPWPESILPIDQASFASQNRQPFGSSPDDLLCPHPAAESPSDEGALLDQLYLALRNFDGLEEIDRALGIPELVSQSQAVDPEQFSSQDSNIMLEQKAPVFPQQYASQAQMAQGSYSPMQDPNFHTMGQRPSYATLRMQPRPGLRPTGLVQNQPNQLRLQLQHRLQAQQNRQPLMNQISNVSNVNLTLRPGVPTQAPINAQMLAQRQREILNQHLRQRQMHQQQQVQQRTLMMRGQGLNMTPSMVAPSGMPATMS

[5] = biological target: T3, transcriptional intermediary factor-2 (TIF2) (human, UniProt Q15596 1-1464); assay: Far-Western blot with E2-bound 32P-GST-ER(DEF)
T3 construct: Full length: endogenous protein of cell extracts (HeLa, MCF-7 and others), protein from transfected Cos-1 cells, or in-vitro-translated; also called 160-kDa protein
T3 sequence (Q15596 whole entry P1420S): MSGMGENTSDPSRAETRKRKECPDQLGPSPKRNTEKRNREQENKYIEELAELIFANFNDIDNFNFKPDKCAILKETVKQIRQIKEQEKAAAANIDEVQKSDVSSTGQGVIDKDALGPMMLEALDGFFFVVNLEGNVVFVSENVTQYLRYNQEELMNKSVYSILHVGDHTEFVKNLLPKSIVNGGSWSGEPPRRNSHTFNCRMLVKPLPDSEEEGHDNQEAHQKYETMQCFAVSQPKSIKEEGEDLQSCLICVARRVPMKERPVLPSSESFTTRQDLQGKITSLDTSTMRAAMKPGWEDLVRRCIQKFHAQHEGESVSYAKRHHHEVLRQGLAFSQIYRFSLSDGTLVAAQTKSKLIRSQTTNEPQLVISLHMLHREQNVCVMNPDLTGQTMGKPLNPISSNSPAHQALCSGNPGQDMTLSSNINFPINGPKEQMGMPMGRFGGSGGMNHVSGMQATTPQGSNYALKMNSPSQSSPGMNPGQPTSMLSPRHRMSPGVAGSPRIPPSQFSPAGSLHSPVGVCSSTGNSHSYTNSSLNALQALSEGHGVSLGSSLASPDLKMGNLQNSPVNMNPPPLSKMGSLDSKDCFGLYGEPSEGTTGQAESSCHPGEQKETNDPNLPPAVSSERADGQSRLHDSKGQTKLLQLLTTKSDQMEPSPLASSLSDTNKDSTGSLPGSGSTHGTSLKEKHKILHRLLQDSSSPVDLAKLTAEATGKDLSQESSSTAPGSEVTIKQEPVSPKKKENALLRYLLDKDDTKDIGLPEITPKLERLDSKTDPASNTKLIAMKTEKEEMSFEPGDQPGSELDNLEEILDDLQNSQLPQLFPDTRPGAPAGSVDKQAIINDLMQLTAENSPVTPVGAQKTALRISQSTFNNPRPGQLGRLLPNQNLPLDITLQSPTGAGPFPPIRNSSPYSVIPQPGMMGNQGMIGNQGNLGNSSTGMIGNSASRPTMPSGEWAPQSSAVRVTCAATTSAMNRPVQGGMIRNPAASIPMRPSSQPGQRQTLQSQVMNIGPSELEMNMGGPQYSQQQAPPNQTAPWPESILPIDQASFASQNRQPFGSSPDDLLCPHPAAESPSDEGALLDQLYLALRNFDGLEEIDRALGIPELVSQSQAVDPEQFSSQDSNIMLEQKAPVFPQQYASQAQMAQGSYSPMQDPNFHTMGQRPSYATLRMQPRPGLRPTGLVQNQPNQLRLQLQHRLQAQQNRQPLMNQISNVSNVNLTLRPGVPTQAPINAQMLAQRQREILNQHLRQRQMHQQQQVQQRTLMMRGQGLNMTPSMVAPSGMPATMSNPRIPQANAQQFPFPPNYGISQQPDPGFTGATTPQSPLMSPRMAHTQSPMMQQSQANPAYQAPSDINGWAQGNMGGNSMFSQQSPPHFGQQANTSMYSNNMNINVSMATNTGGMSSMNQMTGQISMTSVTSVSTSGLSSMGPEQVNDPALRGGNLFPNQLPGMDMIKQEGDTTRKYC

Molecule: CC/C(=C(\c1ccc(O)cc1)c1ccc(OCCN(C)C)cc1)c1ccccc1 [hydroxytamoxifen]
- stimulation by TIF2.1 of transactivation by antagonist-bound ER (ER): did not lead to any stimulation

- binding to NRs (ER, RARα LBDs) (ER, RARα and RXRα LBDs): cannot bind NRs
- binding result [1]: no binding
- binding result [2]: no binding
B1: TIF2.8 (TIF2 amino acids 1010-1179) (other)
chain: GPSELEMNMGGPQYSQQQAPPNQTAPWPESILPIDQASFASQNRQPFGSSPDDLLCPHPAAESPSDEGALLDQLYLALRNFDGLEEIDRALGIPELVSQSQAVDPEQFSSQDSNIMLEQKAPVFPQQYASQAQMAQGSYSPMQDPNFHTMGQRPSYATLRMQPRPGLRPT
notes: In-vitro-translated; also called minimal AD1
- transcriptional activation of GAL4 reporter by GAL4 DBD fusion (GAL4 reporter; Cos-1 and/or HeLa cells): able to activate transcription
- increased transactivation relative to parent fragment (GAL4 reporter; Cos-1 cells): 2 fold
- increased transactivation relative to parent fragment (GAL4 reporter; HeLa cells): 10 fold

Molecule: B2
- binding result [3]: binds
- binding result [4]: binds

- binding result [1]: no binding
- binding result [2]: no binding
B3: TIF2.12 (TIF2 amino acids 940-1131) (other)
chain: IGNSASRPTMPSGEWAPQSSAVRVTCAATTSAMNRPVQGGMIRNPAASIPMRPSSQPGQRQTLQSQVMNIGPSELEMNMGGPQYSQQQAPPNQTAPWPESILPIDQASFASQNRQPFGSSPDDLLCPHPAAESPSDEGALLDQLYLALRNFDGLEEIDRALGIPELVSQSQAVDPEQFSSQDSNIMLEQKAP
notes: In-vitro-translated

Molecule: B4
- binding result [5]: binds
- binding result [3]: binds
